Two molecules from US20250243265A1 (published 2025) can be followed below.

Where two headings read alike, the source gives them in different places.

Assay [1] concerns the target T1, linear diubiquitin (Boston Biochem) (UniProt P0CG48 1-152). Briefly: phage competition ELISA; fit parameter m3. On the technique in general: In an ELISA, binding on a coated surface is turned into a signal by an enzyme label.
Assay [2] concerns the target T1, linear diubiquitin (Boston Biochem). Briefly: phage competition ELISA; fit parameter m3. The source holds these as a separate data set.

B1: 1D8 Fab displayed on phage (Fab, V domains shown)
VH: EVQLVESGGGLVQPGGSLRLSCAASGFTFTDYDIHWVRQAPGKGLEWVAGISPYGGYTDYADSVKGRFTISADTSKNTAYLQMNSLRAEDTAVYYCAREAGSRLLSVMDYWGQGTLVTVSS
VL: DIQMTQSPSSLSASVGDRVTITCRASQDVSTAVAWYQQKPGKAPKLLIYSASFLYSGVPSRFSGSGSGTDFTLTISSLQPEDFATYYCQQSYTTPPTFGQGTKVEIK
For B1, the IC50 (usually the concentration needed to halve the response being measured) in assay [1] was 5.77 µM.

B2: 1D8.4F5 Fab displayed on phage (Fab, V domains shown)
VH: EVQLVESGGGLVQPGGSLRLSCAASGFTFTDDDIHWVRQAPGKGLEWVAEISPYGGYTDYADSVKGRFTISADTSKNTAYLQMNSLRAEDTAVYYCAREAGSRLLSVMDYWGQGTLVTVSS
VL: DIQMTQSPSSLSASVGDRVTITCRASQDVSTAVAWYQQKPGKAPKLLIYSASFLYSGVPSRFSGSGSGTDFTLTISSLQPEDFATYYCQQSFTTPPTFGQGTKVEIK
Molecule B2 came in with an IC50 in assay [2] of 2210 nM.
